Data on 4 molecules can be found in PMC6411835.

Series [1] addresses T1, Zip2(499-704);Spo16 (Saccharomyces cerevisiae;Saccharomyces …, UniProt P53061;P17122 499-704;1-198, |).
T1 sequence 1: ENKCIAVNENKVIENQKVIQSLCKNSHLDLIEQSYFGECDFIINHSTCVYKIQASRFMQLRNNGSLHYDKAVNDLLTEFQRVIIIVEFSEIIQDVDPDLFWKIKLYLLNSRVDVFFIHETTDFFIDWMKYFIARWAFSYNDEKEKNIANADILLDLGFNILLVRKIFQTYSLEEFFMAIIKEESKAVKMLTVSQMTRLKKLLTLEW
T1 sequence 2: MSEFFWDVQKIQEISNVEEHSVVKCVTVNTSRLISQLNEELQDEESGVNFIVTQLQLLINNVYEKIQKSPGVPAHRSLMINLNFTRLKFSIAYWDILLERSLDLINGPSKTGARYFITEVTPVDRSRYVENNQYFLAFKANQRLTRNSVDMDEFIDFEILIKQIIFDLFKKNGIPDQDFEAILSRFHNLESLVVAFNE
Briefly: EMSA.

The target of series [2] is T1, Zip2(499-704);Spo16. Briefly: ITC.
In series [3] the target is T1, Zip2(499-704);Spo16. Briefly: EMSA. This is another data set of the same source.

B1: 40-bp dsDNA (dsDNA)
DNA 1: CCTTTCGAAGACTCATCACGGAGAGCAGACATCATCTGGC
DNA 2: GCCAGATGATGTCTGCTCTCCGTGATGAGTCTTCGAAAGG
The molecule B1 returned a Kd in series [1] of 14 µM.

B2: 3'-overhang DNA (mixed)
DNA 1: CCTTTCGAAGACTCATCACGGAGAGCAGACATCATCTGGC
DNA 2: CGTGATGAGTCTTCGAAAGG
In turn, B2 gave a dissociation constant Kd in series [1] of 17 µM. The Kd values of the last two molecules are within 1.5-fold of each other.

B3: Holliday Junction (HJ) (structured_DNA)
DNA 1: CCTTTCGAAGACTCATCACGGAGAGCAGACATCATCTGGC
DNA 2: ATATATGATTCTAATAAGATCGTGATGAGTCTTCGAAAGG
DNA 3: GCCAGATGATGTCTGCTCTCGTCGTAATGTAAGTGTATGC
DNA 4: GCATACACTTACATTACGACATCTTATTAGAATCATATAT
As for B3, the equilibrium dissociation constant (Kd) is about 1 µM in series [2] and 5 µM in series [3].

B4: 5'-overhang DNA (mixed)
DNA 1: CCTTTCGAAGACTCATCACGGAGAGCAGACATCATCTGGC
DNA 2: GCCAGATGATGTCTGCTCTC
In the case of B4, in series [1], the affinity, expressed as Kd, was 9 µM. This lies in the single-digit micromolar range.
